Data reported in patent US20240116985A1 (published 2024).
Starred links: 1 amine or outer side, 2 acyl side, 3 side chain; linkers in the order of their positions; H or OH if unused. Positions of bridges follow the written chain, without caps; N, C: chain ends. Non-standard residues stand in square brackets, D forms with d. Primed or numbered codes have the meaning given here. *: point of attachment. PyrS2″ = (S)-3-amino-1-((pent-4-en-1-yloxy)carbonyl)pyrrolidine-3-carboxylic acid (stapling residue), C=CCCCOC(=O)N1CC[C@@](N[*:1])(C(=O)[*:2])C1; (Tfp)GAbu = (S)-2-amino-4-((carboxymethyl)(3,3,3-trifluoropropyl)amino)butanoic acid, O=C([C@H](CCN(CCC(F)(F)F)CC(=O)[*:3])N[*:1])[*:2]; B5(4) = 2,2-bis(4-pentenyl)glycine = 2-amino-2-(pent-4-en-1-yl)hept-6-enoic acid (stitching residue), C=CCCCC(CCCC=C)(N[*:1])C(=O)[*:2]; B5(5) = 2,2-bis(4-pentenyl)glycine, 2-amino-2-(pent-4-en-1-yl)hept-6-enoic acid (stitching residue), C=CCCCC(CCCC=C)(N[*:1])C(=O)[*:2]; B5(33) = 2-amino-2-(pent-4-en-1-yl)hept-6-enoic acid (bis-pentenylglycine, two olefin side chains), C=CCCCC(CCCC=C)(N[*:1])C(=O)[*:2]; PyrS2 = (S)-3-amino-1-((pent-4-en-1-yloxy)carbonyl)pyrrolidine-3-carboxylic acid, C=CCCCOC(=O)N1CC[C@@](N[*:1])(C(=O)[*:2])C1; Phe(3-COOH) = N[C@@H](Cc1cccc(C(=O)O)c1)C(=O)O; Phe(2-CF3) = N[C@@H](Cc1ccccc1C(F)(F)F)C(=O)O; Phe(2-Cl) = N[C@@H](Cc1ccccc1Cl)C(=O)O; 2Nal = N[C@@H](Cc1ccc2ccccc2c1)C(=O)O; Bta = N[C@@H](Cc1csc2ccccc12)C(=O)O; Lys(iPr) = CC(C)NCCCC[C@H](N)C(=O)O; αAllylPro = C=CC[C@@]1(C(=O)O)CCCN1; tBuAla = CC(C)(C)C[C@H](N)C(=O)O; 3Thi = N[C@@H](Cc1ccsc1)C(=O)O; Cha = N[C@@H](CC1CCCCC1)C(=O)O; Propanoyl(3-OMe) = COCCC(=O)*; Ms = CS(=O)(=O)*

T1: B-cat-Halo (beta-catenin HaloTag fusion expressed in HEK293 cells) (Homo sapiens (Human), UniProt P35222 1-781)
T1 sequence: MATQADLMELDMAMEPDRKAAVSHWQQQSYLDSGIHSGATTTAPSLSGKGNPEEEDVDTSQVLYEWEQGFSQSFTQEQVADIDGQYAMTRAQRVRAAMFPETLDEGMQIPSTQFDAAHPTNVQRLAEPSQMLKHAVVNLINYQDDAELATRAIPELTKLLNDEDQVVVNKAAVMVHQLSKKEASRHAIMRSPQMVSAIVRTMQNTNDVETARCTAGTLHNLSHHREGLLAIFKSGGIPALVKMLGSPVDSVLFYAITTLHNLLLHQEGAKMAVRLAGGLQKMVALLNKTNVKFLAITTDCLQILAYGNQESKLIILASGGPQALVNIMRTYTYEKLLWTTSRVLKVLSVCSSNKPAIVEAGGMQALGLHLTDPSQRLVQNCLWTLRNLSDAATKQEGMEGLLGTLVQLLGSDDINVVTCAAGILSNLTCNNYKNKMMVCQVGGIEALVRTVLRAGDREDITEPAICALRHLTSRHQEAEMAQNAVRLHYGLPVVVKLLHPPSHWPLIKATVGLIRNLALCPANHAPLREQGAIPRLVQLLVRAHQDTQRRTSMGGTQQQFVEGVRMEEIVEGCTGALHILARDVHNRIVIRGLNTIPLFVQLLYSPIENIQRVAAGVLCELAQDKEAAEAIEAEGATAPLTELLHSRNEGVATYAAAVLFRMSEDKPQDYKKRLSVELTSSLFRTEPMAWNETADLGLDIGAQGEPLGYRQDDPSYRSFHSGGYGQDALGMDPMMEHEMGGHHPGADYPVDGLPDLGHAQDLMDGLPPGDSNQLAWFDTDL

T2: B-cat-Halo (UniProt P35222 1-781)
T2 sequence (looked up): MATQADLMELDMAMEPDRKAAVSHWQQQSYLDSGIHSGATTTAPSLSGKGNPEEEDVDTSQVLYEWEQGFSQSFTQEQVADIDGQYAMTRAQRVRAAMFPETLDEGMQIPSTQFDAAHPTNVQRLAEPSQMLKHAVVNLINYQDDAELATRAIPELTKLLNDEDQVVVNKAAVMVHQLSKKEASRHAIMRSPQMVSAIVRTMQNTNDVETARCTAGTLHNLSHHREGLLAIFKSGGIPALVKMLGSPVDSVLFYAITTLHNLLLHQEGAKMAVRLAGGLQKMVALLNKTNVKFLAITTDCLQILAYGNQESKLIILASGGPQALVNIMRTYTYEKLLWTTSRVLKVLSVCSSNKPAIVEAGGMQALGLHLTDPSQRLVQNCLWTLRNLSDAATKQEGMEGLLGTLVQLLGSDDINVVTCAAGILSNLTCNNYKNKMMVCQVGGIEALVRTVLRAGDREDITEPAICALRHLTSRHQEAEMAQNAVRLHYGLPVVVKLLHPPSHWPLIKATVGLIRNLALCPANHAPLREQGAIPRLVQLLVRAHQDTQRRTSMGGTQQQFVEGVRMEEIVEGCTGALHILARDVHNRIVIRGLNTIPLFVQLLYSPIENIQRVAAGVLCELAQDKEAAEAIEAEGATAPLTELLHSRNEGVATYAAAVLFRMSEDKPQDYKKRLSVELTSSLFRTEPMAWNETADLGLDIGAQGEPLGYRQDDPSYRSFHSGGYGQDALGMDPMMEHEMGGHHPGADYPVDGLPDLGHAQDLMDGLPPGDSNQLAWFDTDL

T3: B-cat-Halo (beta-catenin HaloTag construct expressed in HEK293 cells) (UniProt P35222 1-781)
T3 sequence (looked up): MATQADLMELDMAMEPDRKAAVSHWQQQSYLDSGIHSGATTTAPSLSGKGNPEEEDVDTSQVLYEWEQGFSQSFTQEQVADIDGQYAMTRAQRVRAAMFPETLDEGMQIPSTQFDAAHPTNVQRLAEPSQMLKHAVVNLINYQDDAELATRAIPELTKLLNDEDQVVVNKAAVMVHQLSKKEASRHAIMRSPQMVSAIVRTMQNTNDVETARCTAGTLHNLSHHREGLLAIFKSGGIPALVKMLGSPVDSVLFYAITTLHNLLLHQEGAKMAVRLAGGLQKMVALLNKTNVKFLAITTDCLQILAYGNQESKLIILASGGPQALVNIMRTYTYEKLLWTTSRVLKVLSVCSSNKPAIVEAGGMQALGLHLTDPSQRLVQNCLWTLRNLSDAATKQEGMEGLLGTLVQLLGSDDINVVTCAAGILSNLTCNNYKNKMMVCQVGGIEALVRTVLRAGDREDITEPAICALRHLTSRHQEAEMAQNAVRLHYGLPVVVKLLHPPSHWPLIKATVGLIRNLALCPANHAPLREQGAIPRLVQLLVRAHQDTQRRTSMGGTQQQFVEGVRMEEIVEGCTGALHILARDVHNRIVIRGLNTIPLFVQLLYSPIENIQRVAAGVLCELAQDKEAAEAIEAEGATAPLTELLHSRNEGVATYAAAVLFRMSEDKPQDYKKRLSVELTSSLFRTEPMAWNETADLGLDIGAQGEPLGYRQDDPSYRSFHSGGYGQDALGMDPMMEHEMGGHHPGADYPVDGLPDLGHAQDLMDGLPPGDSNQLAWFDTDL

T4: full-length beta-Catenin (Uniprot ID P35222) (Homo sapiens (Human), UniProt P35222 2-781)
T4 construct: full-length beta-Catenin (Uniprot ID P35222); also called bCat; B-Catenin
T4 sequence: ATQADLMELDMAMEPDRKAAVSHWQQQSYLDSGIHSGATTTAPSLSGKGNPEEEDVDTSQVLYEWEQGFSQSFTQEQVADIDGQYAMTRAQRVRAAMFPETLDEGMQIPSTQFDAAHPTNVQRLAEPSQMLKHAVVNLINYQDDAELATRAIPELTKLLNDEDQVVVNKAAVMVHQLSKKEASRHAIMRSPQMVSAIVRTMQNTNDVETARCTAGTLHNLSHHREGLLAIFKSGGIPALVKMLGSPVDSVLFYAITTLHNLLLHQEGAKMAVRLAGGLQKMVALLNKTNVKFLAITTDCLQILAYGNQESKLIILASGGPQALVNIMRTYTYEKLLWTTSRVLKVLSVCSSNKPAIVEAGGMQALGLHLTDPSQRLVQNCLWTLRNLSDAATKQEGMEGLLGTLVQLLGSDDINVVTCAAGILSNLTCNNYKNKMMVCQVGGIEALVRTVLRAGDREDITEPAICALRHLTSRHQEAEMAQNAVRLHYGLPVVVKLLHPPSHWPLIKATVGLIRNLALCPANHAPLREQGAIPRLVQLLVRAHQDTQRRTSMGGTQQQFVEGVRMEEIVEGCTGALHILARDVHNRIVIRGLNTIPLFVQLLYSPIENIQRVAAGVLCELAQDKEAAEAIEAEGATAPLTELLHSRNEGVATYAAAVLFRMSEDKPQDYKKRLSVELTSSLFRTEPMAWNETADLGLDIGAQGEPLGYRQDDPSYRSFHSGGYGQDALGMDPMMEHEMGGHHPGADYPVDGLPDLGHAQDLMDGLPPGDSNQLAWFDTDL


Columns and labels:
[1] = target: T1, B-cat-Halo (beta-catenin HaloTag fusion …); experiment: cell-based or functional assay
[2] = target: T2, B-cat-Halo; experiment: cell-based or functional assay
[3] = target: T3, B-cat-Halo (beta-catenin HaloTag …); experiment: cell-based or functional assay
[4] = target: T4, full-length beta-Catenin (Uniprot ID …); experiment: fluorescence polarization competition; full-length beta-catenin + 5FAM-TCF4 10-53 probe, peptide titrated
Description: The plate was incubated protected from light for 60 minutes at 20° C. prior to read. Reads were performed on a CLARIOstar plate reader (BMG Labtech) in duplicate, and data were fitted to a 1:1 binding model with hill slope using an in-house script. All provided concentrations are final concentrations.

NanoBRET Abs IC50 [1] [µM] | IC50 [4] [µM] | Binder | further results
25.4 | – | Ac-[αAllylPro]D[tBuAla][B5(4)]D[Phe(3-COOH)]QAFL[PyrS2″][Phe(2-CF3)][2Nal]A-NH2 (staple 1-4, 4-11) [I-2461] | –
15.1 | – | Ac-[αAllylPro]D[tBuAla][B5(4)]D[Phe(3-COOH)]QAFL[PyrS2″][Phe(2-CF3)][RbMeBztA]A-NH2 (staple 1-4, 4-11) [I-2459] | –
5.9 | – | Ac-[αAllylPro]D[tBuAla][B5(4)]D[Phe(3-COOH)]AAFL[PyrS2″][Phe(2-CF3)][RbMeBztA]Q-NH2 (staple 1-4, 4-11) [I-2458] | –
– | – | Ms-[αAllylPro]D[tBuAla][B5(33)]DDAAFN[PyrS2][Phe(2-Cl)][Bta][dT]-NH2 (staple 1-4, 4-11 (inferred); not fully specified; printed as MeSO2-PL3-Asp-Npg-B5-Asp-Asp-Ala-Ala-Phe-Asn-PyrS2-2C1F-BztA-dThr-NH2) [I-1258] | NanoBRET Abs IC50 [2]: > 20 µM
> 20 | – | Ac-[αAllylPro]N[Cha][B5(5)]DQ[Lys(iPr)]AFL[PyrS2″][3Thi][Bta]Q-NH2 (staple 1-4, 4-11; not fully specified; printed as Ac-PL3-Asn-Cha-B5-Asp-Gln-iPrLys-Ala-Phe-Leu-PyrS2-3Thi-BztA-Gln-NH2) [I-2446] | –
8.1 | – | Ac-[αAllylPro]D[tBuAla][B5(4)]D[Phe(3-COOH)]AAFL[PyrS2″][Phe(2-CF3)][SbMeBztA]Q-NH2 (staple 1-4, 4-11) [I-2456] | –
– | – | Ac-[αAllylPro]D[tBuAla][B5(4)]D[(Tfp)GAbu]AAFL[PyrS2″][3Thi][Bta]Q-NH2 (staple 1-4, 4-11) [I-1839] | NanoBRET Abs IC50 [3]: 14.6 µM
– | 4.21 | Ac-[αAllylPro]DA[B5(4)]NT[Lys(iPr)]AFL[PyrS2″]F[Bta]Q-NH2 (staple 1-4, 4-11, also called Ac-PL3-Asp-Ala-B5-Asn-Thr-iPrLys-Ala-Phe-Leu-PyrS2-Phe-BztA-Gln-NH2) [I-1376] | –
– | 1 | Ac-[αAllylPro]DA[B5(4)]NT[Lys(iPr)]AFL[PyrS2″]F[Bta]K-NH2 (staple 1-4, 4-11, also called Ac-PL3-Asp-Ala-B5-Asn-Thr-iPrLys-Ala-Phe-Leu-PyrS2-Phe-BztA-Lys-NH2) [I-1377] | –
– | 6.17 | Ac-[αAllylPro]DA[B5(4)]NT[Lys(iPr)]AFL[PyrS2″]F[Bta]T-NH2 (staple 1-4, 4-11, also called Ac-PL3-Asp-Ala-B5-Asn-Thr-iPrLys-Ala-Phe-Leu-PyrS2-Phe-BztA-Thr-NH2) [I-1378] | –
– | 1.44 | Ac-[αAllylPro]DA[B5(4)]NQ[Lys(iPr)]AFL[PyrS2″]F[Bta]Q-NH2 (staple 1-4, 4-11, also called Ac-PL3-Asp-Ala-B5-Asn-Gln-iPrLys-Ala-Phe-Leu-PyrS2-Phe-BztA-Gln-NH2) [I-1379] | –
– | 10 | Ac-[αAllylPro]DA[B5(4)]NK[Lys(iPr)]AFL[PyrS2″]F[Bta]Q-NH2 (staple 1-4, 4-11, also called Ac-PL3-Asp-Ala-B5-Asn-Lys-iPrLys-Ala-Phe-Leu-PyrS2-Phe-BztA-Gln-NH2) [I-1380] | –
> 20 | – | Ac-[αAllylPro]N[Cha][B5(4)]DT[Lys(iPr)]AFL[PyrS2″]F[Bta]Q-NH2 (staple 1-4, 4-11) [I-2448] | –
– | – | {Propanoyl(3-OMe)}-[αAllylPro]D[tBuAla][B5(33)]DDAAFN[PyrS2][Phe(2-Cl)][Bta][dT]-NH2 (staple 1-4, 4-11 (inferred); not fully specified; printed as MeOPr-PL3-Asp-Npg-B5-Asp-Asp-Ala-Ala-Phe-Asn-PyrS2-2C1F-BztA-dThr-NH2) [I-1259] | NanoBRET Abs IC50 [2]: 18.1 µM
